In US20260167714A1 (COHERUS BIOSCIENCES, published 2026):

Experiments:
[1] = biological target: T1, LILRA1 (human, UniProt O75019 17-461); assay: SPR, Biacore 8K cross-reactivity study
T1 construct: Bought protein; limits of the extracellular domain are marked by bold type not visible here; whole entry named; also called recombinant human LILRA1
Method: (§1) SPR was used to determine the specificity of four humanized anti-ILT4 mAbs for binding to LILRB2 and to determine any cross-reactivity with nine other LILRA and LILRB family members. LILR proteins were purchased from Acro Biosystems or R&D Systems, with sequence provided below. The studies were performed with a Biacore 8K instrument using a CM4 sensor chip with a running buffer of HBS-P+, 100 μg/mL BSA. Anti-human Fc specific capture surfaces were prepared using standard amine coupling chemistry. MAb was captured to flow cell 2 with flow cell 1 serving as the reference flow cell. Each of the nine family members and LILRB2 were injected at 100 nM at 30 μL/min for 90 sec with 240 sec of dissociation. […] All sensorgrams were doubled-referenced during processing of the data.

[2] = biological target: T2, LILRA2 (human, UniProt Q8N149 24-449); assay: SPR, Biacore 8K, mAb captured on anti-human Fc, analyte injected
T2 construct: Bought protein; limits of the extracellular domain are marked by bold type not visible here; whole entry named; also called recombinant human LILRA2
T2 sequence (Q8N149 other isoform, or with tags, fused parts or gaps): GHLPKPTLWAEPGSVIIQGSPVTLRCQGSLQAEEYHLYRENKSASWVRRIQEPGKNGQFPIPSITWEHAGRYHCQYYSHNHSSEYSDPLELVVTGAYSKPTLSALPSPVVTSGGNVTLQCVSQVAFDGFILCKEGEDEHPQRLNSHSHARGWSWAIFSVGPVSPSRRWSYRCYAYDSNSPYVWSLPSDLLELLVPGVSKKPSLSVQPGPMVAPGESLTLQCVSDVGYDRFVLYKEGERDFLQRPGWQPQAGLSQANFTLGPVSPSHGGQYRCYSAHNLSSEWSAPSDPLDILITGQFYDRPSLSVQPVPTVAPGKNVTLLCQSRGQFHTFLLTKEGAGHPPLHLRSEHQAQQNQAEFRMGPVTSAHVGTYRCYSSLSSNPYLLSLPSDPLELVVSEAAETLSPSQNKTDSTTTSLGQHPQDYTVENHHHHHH
Method: as §1

[3] = biological target: T3, LILRB3 (human, UniProt O75022 24-443); assay: as above
T3 construct: Bought protein; limits of the extracellular domain are marked by bold type not visible here; whole entry named; also called recombinant human LILRB3; ILT5
T3 sequence (O75022 other isoform, or with tags, fused parts or gaps): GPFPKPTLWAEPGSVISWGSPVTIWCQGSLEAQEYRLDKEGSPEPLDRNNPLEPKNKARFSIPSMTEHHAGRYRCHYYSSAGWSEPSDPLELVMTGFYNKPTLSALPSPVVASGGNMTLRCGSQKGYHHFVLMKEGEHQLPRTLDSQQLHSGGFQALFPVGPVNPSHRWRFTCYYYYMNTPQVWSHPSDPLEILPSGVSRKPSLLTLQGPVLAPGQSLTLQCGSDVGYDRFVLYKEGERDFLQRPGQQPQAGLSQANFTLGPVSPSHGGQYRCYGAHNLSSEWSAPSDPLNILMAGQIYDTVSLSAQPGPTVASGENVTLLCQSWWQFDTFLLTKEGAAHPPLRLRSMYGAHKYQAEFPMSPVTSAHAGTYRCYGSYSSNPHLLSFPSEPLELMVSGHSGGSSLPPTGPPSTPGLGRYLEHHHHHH
Method: as §1

[4] = biological target: T4, LILRA6 (human, UniProt Q6PI73 24-447); assay: as above
T4 construct: Bought protein; limits of the extracellular domain are marked by bold type not visible here; whole entry named; also called recombinant human LILRA6
T4 sequence (Q6PI73 other isoform, or with tags, fused parts or gaps): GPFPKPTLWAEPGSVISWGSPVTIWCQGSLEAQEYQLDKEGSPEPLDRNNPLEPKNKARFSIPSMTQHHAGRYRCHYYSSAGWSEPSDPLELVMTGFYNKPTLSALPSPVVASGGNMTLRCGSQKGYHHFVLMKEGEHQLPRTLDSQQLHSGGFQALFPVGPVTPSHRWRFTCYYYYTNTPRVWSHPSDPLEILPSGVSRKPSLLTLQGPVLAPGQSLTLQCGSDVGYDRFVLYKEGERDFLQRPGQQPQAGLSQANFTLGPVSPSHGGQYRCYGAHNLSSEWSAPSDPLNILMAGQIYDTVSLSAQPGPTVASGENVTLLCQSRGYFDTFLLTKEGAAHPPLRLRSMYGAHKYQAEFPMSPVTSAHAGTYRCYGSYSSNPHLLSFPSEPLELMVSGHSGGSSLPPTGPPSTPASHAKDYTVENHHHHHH
Method: as §1

[5] = biological target: T5, LILRA4 (human, UniProt P59901 24-446); assay: as above
T5 construct: Bought protein; limits of the extracellular domain are marked by bold type not visible here; whole entry named; also called recombinant human LILRA4
T5 sequence (P59901 other isoform, or with tags, fused parts or gaps): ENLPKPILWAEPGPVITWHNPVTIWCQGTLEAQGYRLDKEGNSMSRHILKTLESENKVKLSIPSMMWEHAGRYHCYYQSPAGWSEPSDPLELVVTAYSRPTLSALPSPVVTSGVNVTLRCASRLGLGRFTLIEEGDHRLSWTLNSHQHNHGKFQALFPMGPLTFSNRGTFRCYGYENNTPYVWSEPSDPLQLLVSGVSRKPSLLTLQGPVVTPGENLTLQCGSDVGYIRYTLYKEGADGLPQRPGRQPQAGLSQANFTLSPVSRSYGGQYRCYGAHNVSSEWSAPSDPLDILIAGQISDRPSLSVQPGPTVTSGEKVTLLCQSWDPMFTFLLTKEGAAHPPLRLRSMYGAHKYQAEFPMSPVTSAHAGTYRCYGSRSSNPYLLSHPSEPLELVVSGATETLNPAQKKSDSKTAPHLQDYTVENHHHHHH
Method: as §1

[6] = biological target: T6, LILRA5 (human, UniProt A6NI73 42-268); assay: as above
T6 construct: Bought protein; limits of the extracellular domain are marked by bold type not visible here; whole entry named; also called recombinant human LILRA5
T6 sequence (A6NI73 other isoform, or with tags, fused parts or gaps): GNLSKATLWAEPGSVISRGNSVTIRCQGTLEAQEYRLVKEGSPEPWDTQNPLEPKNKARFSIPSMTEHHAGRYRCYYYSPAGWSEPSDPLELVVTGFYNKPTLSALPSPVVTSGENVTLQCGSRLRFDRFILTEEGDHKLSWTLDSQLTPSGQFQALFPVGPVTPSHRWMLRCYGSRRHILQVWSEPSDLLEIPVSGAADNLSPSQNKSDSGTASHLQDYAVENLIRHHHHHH
Method: as §1

[7] = biological target: T7, LILRB4 (human, UniProt Q8NHJ6 22-259); assay: as above
T7 construct: Bought protein; limits of the extracellular domain are marked by bold type not visible here; whole entry named; also called recombinant human LILRB4; ILT3
T7 sequence (Q8NHJ6 other isoform, or with tags, fused parts or gaps): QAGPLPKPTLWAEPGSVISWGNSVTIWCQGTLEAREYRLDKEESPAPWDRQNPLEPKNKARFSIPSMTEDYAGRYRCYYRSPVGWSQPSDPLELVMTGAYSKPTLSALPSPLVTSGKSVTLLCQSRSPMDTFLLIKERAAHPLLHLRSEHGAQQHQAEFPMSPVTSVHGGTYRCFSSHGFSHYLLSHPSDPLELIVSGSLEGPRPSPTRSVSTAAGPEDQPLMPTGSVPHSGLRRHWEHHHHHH
Method: as §1

[8] = biological target: T8, recombinant human ILT4 (LILRB2) (human, UniProt Q8N423 22-460); assay: SPR, high resolution kinetics, triplicate, LALA antibody
T8 construct: Bought protein (Acro Biosystems or R&D Systems); also called ILTR4
T8 sequence (Q8N423 other isoform, or with tags, fused parts or gaps limits assumed): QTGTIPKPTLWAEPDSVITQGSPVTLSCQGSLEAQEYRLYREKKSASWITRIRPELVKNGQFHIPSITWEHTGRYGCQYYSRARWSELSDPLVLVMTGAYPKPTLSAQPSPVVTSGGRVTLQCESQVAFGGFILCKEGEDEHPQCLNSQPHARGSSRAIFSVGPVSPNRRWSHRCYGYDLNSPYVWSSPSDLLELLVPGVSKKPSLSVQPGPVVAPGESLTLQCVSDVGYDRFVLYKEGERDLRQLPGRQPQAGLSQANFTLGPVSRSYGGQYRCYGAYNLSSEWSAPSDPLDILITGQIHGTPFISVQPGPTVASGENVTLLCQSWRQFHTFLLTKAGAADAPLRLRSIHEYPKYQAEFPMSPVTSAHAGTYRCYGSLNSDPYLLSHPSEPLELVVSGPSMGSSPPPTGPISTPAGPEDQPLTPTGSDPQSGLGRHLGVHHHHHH

[9] = biological target: T9, LILRA3 (human, UniProt Q8N6C8 24-439); assay: SPR, Biacore 8K cross-reactivity study, single concentration 100 nM; upper end of the range 600-700 nM
T9 construct: Bought protein; limits of the part used are marked by bold type not visible here; whole entry named; also called recombinant human LILRA3
T9 sequence (Q8N6C8 24-439 A105V limits assumed): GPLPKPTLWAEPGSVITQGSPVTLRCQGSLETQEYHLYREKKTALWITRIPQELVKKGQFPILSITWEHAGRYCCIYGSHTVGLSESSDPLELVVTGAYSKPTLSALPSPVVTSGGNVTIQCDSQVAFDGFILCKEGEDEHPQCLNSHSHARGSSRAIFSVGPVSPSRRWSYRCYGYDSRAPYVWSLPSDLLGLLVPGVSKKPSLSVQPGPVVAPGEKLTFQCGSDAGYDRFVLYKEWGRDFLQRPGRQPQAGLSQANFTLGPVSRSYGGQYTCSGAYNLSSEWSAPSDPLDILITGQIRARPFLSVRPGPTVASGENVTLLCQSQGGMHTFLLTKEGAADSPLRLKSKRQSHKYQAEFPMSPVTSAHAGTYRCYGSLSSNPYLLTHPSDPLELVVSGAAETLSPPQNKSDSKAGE
Method: as §1

[10] = biological target: T9, LILRA3; assay: SPR, Biacore 8K, mAb captured on anti-human Fc, LILRA3 at 100 nM; legend: + weak binding (~600-700 nM KD)
Method: as §1

[11] = biological target: T8, recombinant human ILT4 (LILRB2); assay: SPR, Biacore T200, medium resolution; koff held at its limit of 4.27e-5 s^-1
Outline: (§2)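 Mouse, chimeric or humanized mAbs captured on anti-Fc surfaces (CM4 chip); ILT4 injected at 101 to 0.79 nM, 2-fold series, 90 s association, 1200 s dissociation. Run at 25° C in HBS-P+ pH 7.4 with 100 μg/ml BSA; double-referenced global 1:1 fit with mass-transport term, KD=koff/kon.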

[12] = biological target: T9, LILRA3; assay: SPR, Biacore 8K cross-reactivity study, single concentration 100 nM; lower end of the range 600-700 nM
Method: as §1

[13] = biological target: T8, recombinant human ILT4 (LILRB2); assay: KinExA, solution equilibrium, n-curve analysis
Method: Kinetic Exclusion Assay (KinExA®) was performed to measure the equilibrium binding affinity and kinetics between human ILT4 and four humanized LALA-Fc modified antibodies in solution. For affinity analysis, the equilibrium dissociation constant, KD, was experimentally determined and reflects the strength of the binding interaction. The rate of association, kₒₙ, was also experimentally determined, while the rate of dissociation, koff, is calculated based on the following equation: koff=KD×kₒₙ
The binding affinity (KD), association (kₒₙ), and dissociation rate constants (koff) were measured for 4 different Humanized LALA IgG antibodies to ILT4 using KinExA. An n-curve analysis of at least two different curves, run at two different CBP concentrations, was used to determine the KD of the interactions The ILT4 was used as the concentration reference for all curves. All of the binding systems have low error and well defined 95% confidence intervals giving confidence to the measurements: […]

[14] = biological target: T8, recombinant human ILT4 (LILRB2); assay: SPR, Biacore T200, mAb captured on anti-Fc, ILT4 injected, medium resolution, 25 C
Outline: as §2

[15] = biological target: T8, recombinant human ILT4 (LILRB2); assay: SPR, Biacore 8K, mAb captured on anti-human Fc, LILRB2 at 100 nM; legend: ++++ tight binding (<100 pM KD)
Method: as §1

[16] = biological target: T8, recombinant human ILT4 (LILRB2); assay: SPR, high resolution kinetics, triplicate, LALA antibody; 95% CI in parentheses
[17] = biological target: T10, human ILT4 expressed on cells (human, UniProt Q8N423 22-597); assay: flow based HLA-G blocking assay
T10 construct: whole, on cells; The same entry is used for endogenous ILT4 of human macrophages; also called CHO-S/ILT4 cells; ILT4-CHO cells
T10 sequence (Q8N423 22-597): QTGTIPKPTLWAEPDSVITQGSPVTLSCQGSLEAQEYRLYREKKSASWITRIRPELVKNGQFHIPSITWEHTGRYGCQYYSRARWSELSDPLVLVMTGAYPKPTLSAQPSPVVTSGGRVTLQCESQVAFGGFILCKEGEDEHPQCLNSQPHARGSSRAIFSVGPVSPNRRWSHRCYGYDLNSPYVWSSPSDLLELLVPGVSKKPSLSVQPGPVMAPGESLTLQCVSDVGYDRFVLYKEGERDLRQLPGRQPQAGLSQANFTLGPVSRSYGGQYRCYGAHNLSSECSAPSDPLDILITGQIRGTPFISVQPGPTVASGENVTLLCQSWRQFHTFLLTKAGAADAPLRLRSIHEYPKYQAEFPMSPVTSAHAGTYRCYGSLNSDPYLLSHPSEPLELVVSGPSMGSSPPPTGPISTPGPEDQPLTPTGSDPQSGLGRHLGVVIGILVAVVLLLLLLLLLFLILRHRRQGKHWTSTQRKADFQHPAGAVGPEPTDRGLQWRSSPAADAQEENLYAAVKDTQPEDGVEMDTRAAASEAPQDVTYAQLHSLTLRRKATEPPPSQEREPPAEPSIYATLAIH

T1 sequence (O75019 other isoform, or with tags, fused parts or gaps): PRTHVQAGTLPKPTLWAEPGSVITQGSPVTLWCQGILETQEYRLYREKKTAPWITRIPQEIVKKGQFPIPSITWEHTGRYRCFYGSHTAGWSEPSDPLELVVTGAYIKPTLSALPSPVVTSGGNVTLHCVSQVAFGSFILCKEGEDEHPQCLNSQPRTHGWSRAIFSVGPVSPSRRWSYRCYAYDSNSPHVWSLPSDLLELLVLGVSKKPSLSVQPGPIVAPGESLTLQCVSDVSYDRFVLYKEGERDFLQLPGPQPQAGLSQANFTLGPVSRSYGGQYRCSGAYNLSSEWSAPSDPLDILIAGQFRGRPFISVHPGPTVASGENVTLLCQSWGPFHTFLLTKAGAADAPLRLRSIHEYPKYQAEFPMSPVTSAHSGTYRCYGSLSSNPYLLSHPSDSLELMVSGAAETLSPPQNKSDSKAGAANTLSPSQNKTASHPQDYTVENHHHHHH

B1: Hz180-LALA (antibody, human IgG1, kappa, L234A L235A, V domains shown)
VH: QVQLVQSGAEVKKPGSSVKVSCKASGYSFIGYFMNWMRQAPGQGLEWIGRINPYNGDIFYNQKFKGRVTITVDKSTSTAYMELSSLRSEDTAVYYCARGITVAAGSFDVWGQGTTVTVSS
VL: DIVMTQSPDSLAVSLGERATINCRASESVDNYGNTFMHWYQQKPGQPPKLLIYRASNLESGIPDRFSGSGSGTDFTLTISSLQAEDVAVYYCQQSSDHPLTFGGGTKVEIKR
notes: Humanized L180S4, human IgG1 L234A/L235A, kappa; also called Humanized 180_04; Hz 180 04
[1]
  binding result: binds
[2]
  binding result: no binding (tested: 100 nM)
[3]
  binding result: no binding (tested: 100 nM)
[4]
  binding result: no binding (tested: 100 nM)
[5]
  binding result: no binding (tested: 100 nM)
[6]
  binding result: no binding (tested: 100 nM)
[7]
  binding result: no binding (tested: 100 nM)
[8]
  Kd: 0.0016 nM
  koff: 6.3e-06 s⁻¹
[9]
  Kd: 600 to 700 nM
[10]
  KD: 600 to 700 nM
[11]
  Kd: ≤ 0.053 nM
  koff: ≤ 4.27e-05 s⁻¹
[12]
  Kd: 600 to 700 nM
[13]
  Kd: 0.000759 nM
[14]
  kon: 812000 M⁻¹ s⁻¹
[15]
  KD: < 0.1 nM
[16]
  kon: 3.95e+06 M⁻¹ s⁻¹
[17]
  IC50: 0.051 mg/L
